# Source: article PMC6765112, “Specificity of MYB interactions relies on motifs in ordered and disordered contexts” (Nucleic Acids Research, 2019)
# Like-named read-outs stand apart in the source and are kept apart here. Ends that are not written are not given here. * marks the point of attachment. Biotin = O=C1N[C@H]2[C@H](CS[C@H]2CCCCC(=O)*)N1
# B1: MYC4 N-terminal domain (L55-N253) (domain or fragment, Arabidopsis thaliana, UniProt O49687 55-253, looked up)
# chain: LPQVNEDNLQQRLQALIEGANENWTYAVFWQSSHGFAGEDNNNNNTVLLGWGDGYYKGEEEKSRKKKSNPASAAEQEHRKRVIRELNSLISGGVGGGDEAGDEEVTDTEWFFLVSMTQSFVKGTGLPGQAFSNSDTIWLSGSNALAGSSCERARQGQIYGLQTMVCVATENGVVELGSSEIIHQSSDLVDKVDTFFNFN
# notes: MYC4, Arabidopsis thaliana, N-terminal domain with the JID, residues L55-N253 (AA55-253); recombinant protein of 22.7 kDa; expressed from pET52u; source: E. coli BL21(DE3), purified (HisTrap HP IMAC, dialysed to PBS pH 7.4 with 1 mM DTT); not shown: 6xHis, C-terminal, kept
# B2: WT-MIM peptide (F180-G201 of MYB29) (peptide, UniProt Q9FLR1 180-201, looked up)
# peptide: Biotin-FKRSSSTSKLLNKVAARASSMG
# notes: source: synthetic peptide (TAG Copenhagen A/S)
# B3: non-MYB region of MYB75: non-MYB region of MYB75 (residues K110-D248) (protein)
# chain: KKHEPCCKIKMKKRDITPIPTTPALKNNVYKPRPRSFTVNNDCNHLNAPPKVDVNPPCLGLNINNVCDNSIIYNKDKKKDQLVNNLIDGDNMWLEKFLEESQEVDILVPEATTTEKGDTLAFDVDQLWSLFDGETVKFD
# modifications: left off: NubG and FRB (from the vector pFRB), end not stated, kept
# How the values were obtained:
# [1] = target: T1, L190V-MIM peptide (F180-G201 of MYB29, L190V) (Arabidopsis thaliana, UniProt Q9FLR1 180-201, L190V, biotin on the N-terminus); assay: BLI; biotinylated peptide (1 μM) immobilised on streptavidin biosensors; MYC4Nt 130 to 0.1 μM; PBS pH 7.4, 1 mM DTT, 0.05% bovine serum albumin; BLItz; equilibrium responses fitted to a Hill equation; conditions: both partners purified
# T1 construct: MYB29, Arabidopsis thaliana, 22 residues F180-G201; source: synthetic peptide (TAG Copenhagen A/S)
# T1 peptide (looked up): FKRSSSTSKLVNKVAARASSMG
# [2] = target: T2, MYC4 N-terminal domain (L55-N253) (Arabidopsis thaliana, UniProt O49687 55-253); assay: BLI
# T2 chain: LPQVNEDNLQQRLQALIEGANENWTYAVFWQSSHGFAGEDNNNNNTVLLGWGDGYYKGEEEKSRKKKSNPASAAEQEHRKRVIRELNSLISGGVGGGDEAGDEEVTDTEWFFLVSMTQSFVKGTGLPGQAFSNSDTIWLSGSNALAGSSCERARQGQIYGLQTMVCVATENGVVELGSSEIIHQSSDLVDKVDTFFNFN
# [3] = target: B1; assay: BLI; biotinylated peptide (1 μM) immobilised on streptavidin biosensors; MYC4Nt 130 to 0.1 μM; PBS pH 7.4, 1 mM DTT, 0.05% bovine serum albumin; BLItz; equilibrium responses fitted to a Hill equation; conditions: both partners purified
# GL3 [4] = assay: Split-ubiquitin assay, GL3 as bait; format: cell-based, Arabidopsis thaliana; conditions: yeast, SD-AHLW growth
# Description: The rapamycin-compatible yeast strain NMY51 TOR1-1 Δfpr1 ([35]) was transformed according to DUALhunter™ kit instructions (Dualsystems biotech). Briefly, overnight 2×YPAD cultures were diluted to OD600 = 0.2, and incubated at 30°C, 150 RPM for 4–6 h in 2×YPAD, before harvesting the cells by centrifugation at 700 g for 5 min. The cells were washed with H2O, then 0.1 M LiOAc, before resuspending in 0.1 M LiOAc with 15% glycerol. The competent cells were then aliquoted and stored at −80°C until transformation. For double transformation with bait and prey plasmids, competent cells were thawed on ice, and mixed with transformation mix (240 μl 50% PEG-3350, 35 μl 1 M LiOAc and 25 μl 2 mg/ml ssDNA per transformation) and 200 ng of each plasmid, before being exposed to a 42°C heat shock in a water bath for 45 min. The cells were then chilled on ice for a few minutes, sedimented by centrifugation (3000 g, 1 min), resuspended in sterile H2O, plated on SD-LW plates and grown at 30°C for 2–3 days.
# For drop tests, cells from three individual colonies of each bait/prey combination were grown overnight in liquid SD-LW media. Next day, culture densities were normalized to OD600 = 0.05, dilution series (OD600 = 0.05, OD600 = 0.005, OD600 = 0.0005 and OD600 = 0.00005) were spotted on square plates (SD-LW, SD-AHLW and SD-AHLW+Rapa) and grown for 2 days at 30°C before taking pictures.
# To identify interaction sites mediating specific MYB–MYC complex formation, we selected two TFs from each family. These were MYB28 and MYB29 from MYB subgroup 12, and two of their partner bHLH TFs, MYC3 and MYC4. To define the region mediating the interactions we applied a chemically inducible dimerization split-ubiquitin system ([35]). […] This is used as an in-built positive control for correct expression and functionality of the prey fusion protein and thereby reduces the incidence of false negatives.
# GL3 [5] = conditions: ref [32]; cited from earlier work
# Description: To identify interaction sites mediating specific MYB–MYC complex formation, we selected two TFs from each family. These were MYB28 and MYB29 from MYB subgroup 12, and two of their partner bHLH TFs, MYC3 and MYC4. To define the region mediating the interactions we applied a chemically inducible dimerization split-ubiquitin system ([35]). […] As controls, we included the interaction between GL3 and MYB75, where a fragment c ...
molecule,measurement,setting,value
B1,fold weaker affinity than the WT-MIM peptide,[1],~10 fold
B2,Kd,[2],1.9 µM
same,Kd,[3],2.7 ± 0.8 µM
B3,interaction with GL3 (in words),GL3 [4],does not
same,interaction with GL3 (in words),GL3 [5],unable to interact
